Molecular target: POLRMT.STREP2 (POLRMT carrying a FLAG and a STREP2 binding group) (human, UniProt O00411 42-1230)
Experiment: pull-down

POLRMT.STREP2 (POLRMT carrying a FLAG and a STREP2 binding group), sequence (O00411 42-1230): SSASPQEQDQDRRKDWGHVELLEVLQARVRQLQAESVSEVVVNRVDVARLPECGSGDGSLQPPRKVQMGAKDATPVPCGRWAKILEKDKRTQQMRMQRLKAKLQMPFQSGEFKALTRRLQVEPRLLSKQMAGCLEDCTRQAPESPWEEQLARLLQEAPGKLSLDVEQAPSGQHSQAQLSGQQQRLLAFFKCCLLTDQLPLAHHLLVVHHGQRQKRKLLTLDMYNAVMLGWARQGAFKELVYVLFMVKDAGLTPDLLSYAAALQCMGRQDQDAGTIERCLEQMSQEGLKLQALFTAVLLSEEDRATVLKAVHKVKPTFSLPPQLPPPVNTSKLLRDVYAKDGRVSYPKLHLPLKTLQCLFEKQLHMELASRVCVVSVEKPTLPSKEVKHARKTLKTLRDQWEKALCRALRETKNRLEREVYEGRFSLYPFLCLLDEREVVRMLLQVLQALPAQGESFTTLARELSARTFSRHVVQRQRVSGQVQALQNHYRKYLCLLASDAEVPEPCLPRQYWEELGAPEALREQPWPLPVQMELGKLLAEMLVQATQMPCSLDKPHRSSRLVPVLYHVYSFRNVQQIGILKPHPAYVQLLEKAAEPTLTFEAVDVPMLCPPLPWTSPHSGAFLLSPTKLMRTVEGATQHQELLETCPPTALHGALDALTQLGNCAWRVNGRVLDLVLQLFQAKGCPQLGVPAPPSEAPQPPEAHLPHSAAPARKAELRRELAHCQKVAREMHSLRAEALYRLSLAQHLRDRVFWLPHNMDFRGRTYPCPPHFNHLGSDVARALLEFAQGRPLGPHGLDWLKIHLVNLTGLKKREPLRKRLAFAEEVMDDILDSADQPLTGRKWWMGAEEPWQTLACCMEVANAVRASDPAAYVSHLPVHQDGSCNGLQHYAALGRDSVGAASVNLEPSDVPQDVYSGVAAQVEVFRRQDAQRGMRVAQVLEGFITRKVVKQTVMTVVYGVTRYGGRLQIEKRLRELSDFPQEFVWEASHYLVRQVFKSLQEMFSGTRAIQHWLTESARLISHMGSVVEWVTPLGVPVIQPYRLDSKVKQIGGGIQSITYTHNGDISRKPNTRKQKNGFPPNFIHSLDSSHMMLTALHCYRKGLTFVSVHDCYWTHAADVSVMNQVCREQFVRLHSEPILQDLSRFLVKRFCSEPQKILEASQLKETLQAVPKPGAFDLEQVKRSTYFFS

B1: TEFM (transcription elongation factor of mitochondria), endogenous (natural protein, human (endogenous in HEK 293T), UniProt Q96QE5 36-360, looked up)
chain: KSTTPKKITPNVTFCDENAKEPENALDKLFSSEQQASILHVLNTASTKELEAFRLLRGRRSINIVEHRENFGPFQNLESLMNVPLFKYKSTVQVCNSILCPKTGREKRKSPENRFLRKLLKPDIERERLKAVNSIISIVFGTRRIAWAHLDRKLTVLDWQQSDRWSLMRGIYSSSVYLEEISSIISKMPKADFYVLEKTGLSIQNSSLFPILLHFHIMEAMLYALLNKTFAQDGQHQVLSMNRNAVGKHFELMIGDSRTSGKELVKQFLFDSILKADPRVFFPSDKIVHYRQMFLSTELQRVEELYDSLLQAIAFYELAVFDSQP
- amount in the POLRMT.STREP2 peak elution fractions relative to TFAM: 2 fold
- amount in the POLRMT.STREP2 peak elution fractions relative to TFB2M: 5 fold
